Values quoted from earlier work in article PMC3012698, “Characterization of a Novel Interaction between Bcl-2 Members Diva and Harakiri” (PLoS ONE, 2010).

How the values were obtained:
Diva = conditions: ref [21]
Source text: Harakiri localizes in membranes and exerts proapoptotic activity by interacting with survival Bcl-XL and Bcl-2 [18]. Harakiri has not been characterized at the structural level except for its C-terminal sequence (∼30 amino acids), which is known from low-resolution techniques to adopt α-helical conformation in model membranes. Diva has also been found predominantly in membranes [20]–[21]. However, little functional data on Diva is available. Specifically, previous independent reports indicate that Diva can have both pro- or antiapoptotic function [20]–[21]. Diva has also been ...

[1] = ref [10]
Description: Circular dichroism (CD) experiments were performed on Harakiri's cytosolic domain to obtain information on its conformational behavior. […] Thus, the cytosolic domain of Harakiri is largely unstructured. Consequently, the NMR spectra of Hrk_ΔTM show small amide ^1H chemical shift dispersion (from ∼7.9 to 8.7 ppm) and severe signal overlap ( Fig. 6 ). These spectral features together with the absen ...

Molecule | binding to Diva (co-immunoprecipitation) (Diva) | structural state of unbound BH3-only protein [1]
Bak: proapoptotic Bcl-2 member Bak (protein, UniProt Q16611 2-211, looked up) Bcl-2 homologous …: ASGQGPGPPRQECGEPALPSASEEQVAQDTEEVFRSYVFYRHQQEQEAEGVAAPADPEMVTLPLQPSSTMGQVGRQLAIIGDDINRRYDSEFQTMLQHLQPTAENAYEYFTKIATSLFESGINWGRVVALLGFGYRLALHVYQHGLTGFLGQVTRFVVDFMLHHCIARWIAQRGGWVAALNLGNGPILNVLVVLGVVLLGQFVVRRFFKS | bind | –
Bik: proapoptotic Bcl-2 member Bik (protein, UniProt Q13323 1-160, looked up) Bcl-2-interacting killer: MSEVRPLSRDILMETLLYEQLLEPPTMEVLGMTDSEEDLDPMEDFDSLECMEGSDALALRLACIGDEMDVSLRAPRLAQLSEVAMHSLGLAFIYDQTEDIRDVLRSFMDGFTTLKENIMRFWRSPNPGSWVSCEQVLLALLLLLALLLPLLSGGLHLLLK | bind | –
Bad: BH3-only protein Bad (protein, UniProt Q92934 1-168, looked up) Bcl2-associated agonist of …: MFQIPEFEPSEQEDSSSAERGLGPSPAGDGPSGSGKHHRQAPGLLWDASHQQEQPTSSSHHGGAGAVEIRSRHSSYPAGTEDDEGMGEEPSPFRGRSRSAPPNLWAAQRYGRELRRMSDEFVDSFKKGLPRPKSAGTATQMRQSSSWTRVFQSWWDRNLGRGSSAPSQ | – | unstructured
